In the supplement of paper PMC12764529:
± gives the half width of the 95% confidence interval.

Assays:
[1] = folding stability dG unfold (combined trypsin and chymotrypsin); higher = more stable
Outline: (§1)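 Unfolding free energy was derived, per protease or combined, by relating Bayesian-fitted K50 values from sequencing counts to a sequence-predicted unfolded-state K50 and a shared folded-state K50. The underlying digests exposed cysteine-free mini-proteins under 80 residues, in a PA-tagged cDNA display construct, to trypsin and chymotrypsin at 11 threefold-diluted concentrations and to a no-protease condition. A filter kept only designs with AlphaFold2 dimer inter-PAE above 15.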

[2] = folding stability dG unfold from chymotrypsin proteolysis; higher = more stable
Outline: as §1

[3] = folding stability dG unfold from trypsin proteolysis; higher = more stable
Outline: as §1

Row | Sequence | folding stability dG unfold [1] [kJ/mol] | folding stability dG unfold [2] [kJ/mol] | folding stability dG unfold [3] [kJ/mol]
1 | SMKIYILSSGDKEKVLAEVKEKYPDLEIELFEDIEEAKKAAEKGNLLISNGDEELAKEFEEKYNVKVIIKSA [r9_380_JUSTAS] | 6.7 ± 0.586 | 6.91 ± 0.172 | 5.89 ± 0.163
2 | SAGQLPPGETYTAEIEIRKNEPITLEEIAKKLPGYEFDSVKVEPMPDGWTRITITMTPGDVDKIQDAIRSAG [r5_554_TrROS] | 6.89 ± 0.385 | 7.81 ± 0.13 | 3.85 ± 0.184
3 | SAGGSAGGSAGGSPNIYYTSGPFALVVTLPNGTKIVIPGSNIENLKNYNLISVEVVSTDSAGGSAGGSAGGS [r4_348_TrMRF] | 5.87 ± 0.628 | 7.59 ± 0.418 | 2.21 ± 0.272
4 | SAGGSAMYEVRIKIKKDGKEVEIELSLEELEELLESPELREELEIVEIEVRPLPPEELSEEELKALSAGGSA [r15_460_TrROS_Hall] | 4.44 ± 0.243 | 3.5 ± 0.188 | 4.94 ± 0.117
5 | SAGGSAMPDNMKPVGSIPMVYLVPDGWIMRINYEYWKNPESGMWMINMDIEVFPLPKNDPELLKAISAGGSA [r15_207_TrROS] | 10.9 ± 0.753 | 11.1 ± 0.389 | 10.1 ± 0.753
6 | SAGGSAGGSAGMKTVLSTKTEPSPEDLTVTTVTLGDKVYTIIYDPKTGKPLKVIPAGEFKSAGGSAGGSAGG [r11_851_JUSTAS] | 3.59 ± 0.502 | 5.23 ± 0.389 | -0.165 ± 0.418
7 | SEEEVEEPEVRVEVREIRLDDLTEEERRRLRELAERLAREEPPEELPPGYRVRVEIRDGVIVSVEVEPVPSA [r9_905_TrROS_Hall] | 7.75 ± 0.669 | 7.95 ± 0.314 | 7.68 ± 0.163
8 | SAGGSAGGSAGKIEVTYNKENNTFTVKIVNKKTKKVITIKVKAKSKEDALKKVKELLEKLSAGGSAGGSAGG [r17_386_TrROS_Hall] | 13 ± 0.795 | 13.9 ± 0.326 | 11.7 ± 0.711
9 | SAGVIPESLIEKVETEEYPGGITRSTYTYPDGVTVTVEETKVPGTDGITRKITVYPPTNTTTETTVTDPSAG [r5_802_JUSTAS] | 1.84 ± 0.502 | 1.45 ± 0.669 | 1.21 ± 0.41
10 | SAGGSAISEEEPFVKIKVELESEPKEIILPKSDIVKIEVDEPDKIATIYLPSTGKFFPFKVLSVENSAGGSA [r15_495_TrMRF] | -0.143 ± 1.13 | -1.44 ± 1.84 | 1.39 ± 0.331
11 | SAGGSAGGSAMKTITLKDEKGNPLTAEVEKLPNGTIKITITKPGGEKTTYTIPPGEKITLPVSAGGSAGGSA [r18_115_JUSTAS] | 11.6 ± 0.586 | 12.5 ± 0.209 | 9.77 ± 0.669
12 | SAGGSAGGSPKIELLDSRPRPDGSLVELLAIEAEDEIRLLVIVTHPDGVDIRFFEPEYPDLDLSAGGSAGGS [r12_315_TrMRF] | 1.17 ± 1.26 | 0.0335 ± 0.753 | 1.61 ± 0.628
13 | SAGGSAGNPVPKVTVTDVTFGIPESDPSLLEKKAEEVAAELNKPELTVTITEYDPATYTFTITVVSSAGGSA [r15_563_JUSTAS] | 6.17 ± 0.247 | 7.93 ± 0.293 | 2.71 ± 0.0879
14 | SAGGSAGGSAGGGSVSGSTPLTLPDSPVTRYSYPDSLVTFVPEKGVVITVSGSSTTVALSAGGSAGGSAGGS [r10_559_JUSTAS] | 2.74 ± 0.46 | 1.84 ± 0.322 | 3.45 ± 0.126
15 | SAGGSAKTITIEVKVEKTKDGKIKKGEIVKVEIEVDEKTKKVKIKIYNKNGELIAEIEIELSPEDLSAGGSA [r15_134_TrROS_Hall] | 11.8 ± 1.63 | 12.3 ± 0.669 | 5.59 ± 0.879
16 | SAGGSAGGDTITIWIPGMPLEELRDLLKAFFPGKDVSVEYDPEHGSFVLTVNGKKITIHIMPPNSAGGSAGG [r6_609_TrROS] | 18.6 ± 0.36 | 18.6 ± 0.255 | 16.3 ± 0.418
17 | SSSPLPSPVTLPNGTVVYYFPDTGLVLTLDPKTGTGTVTYVTTDPQGNPTFFPSTVTFDPPTGKVVEVVASA [r9_122_JUSTAS] | 9.98 ± 0.331 | 11.6 ± 0.138 | 3.78 ± 0.243
18 | SAGGSAGGSMYLIRVTTEDNIELTFLVSEDDIEAFEAFAKALAELFPVPVKVEIEPVEEGEEVSAGGSAGGS [r12_385_TrMRF] | 14.8 ± 0.36 | 15.6 ± 0.18 | 13.4 ± 0.669
19 | SAGGKIEELAKEIAQEHNIKSVDVQTTGGYPKVNVRFRNPKEGRMYRIKIHVPPDGNIKISIEPQELSAGGS [r16_433_TrROS] | 8.02 ± 1.09 | 8.7 ± 0.544 | 7.82 ± 0.142
20 | SAGSVTSVEVKEKGEVTVTTETLNIDGKPYTVVSTTTPLLDPEGNVTYTTTTTVYDPNGNKISTTPTSLSAG [r14_465_JUSTAS] | 7.71 ± 0.213 | 8.94 ± 0.134 | 5.59 ± 0.138
21 | SAGGSAGGSAGMLRVRAVIKRPGGELEELTDVTEEEVLAYAREKGWEIEELKVISPSEKPSAGGSAGGSAGG [r11_283_JUSTAS] | 6.85 ± 0.544 | 8 ± 0.502 | 5.13 ± 0.226

Row | Sequence | folding stability dG unfold [1] [kJ/mol] | folding stability dG unfold [2] [kJ/mol] | folding stability dG unfold [3] [kJ/mol]
22 | SVTRDPDGKITVDVDVRRTPDGFYYVEVKLQLKDGKPIFPVPAPVKNPEDGVKRMKEFAETFAKEFLKKWSA [r9_739_TrROS] | 8.53 ± 0.628 | 10.1 ± 0.364 | 5.64 ± 0.243
23 | SAGGGGSTTQPQQVELPGDRTATVTLHTHGDTPTATITLSEKESELGTVTVPVASTAEVAAAVAALASAGGS [r16_55_JUSTAS] | 4.07 ± 0.406 | 2.86 ± 0.121 | 5.28 ± 0.117
24 | SAGKNWYIQIQIEHRDPDGKPKREIPIIIEANPGDPEAFERALEFAERIAEKLHPPGHRVEINVTLFPYSAG [r5_793_TrROS] | 10.2 ± 0.711 | 9.09 ± 0.418 | 11.4 ± 0.962
25 | SAGMVIAIKPGEPRILVSGLPPELVRRIAEELGAPDVVPVEPGVPAWTALENHPDPAAFLVIPPELALSAGG [r19_270_TrMRF] | 0.21 ± 0.628 | 1.64 ± 0.502 | -3.44 ± 2.93
26 | SAGGSAGGSMKIRIERTPDKLTIMIPPDNPDKIKNIIDNFGYPITDVKVTQNPPGMHMIEIPLSAGGSAGGS [r12_493_TrROS] | 6.32 ± 0.795 | 6.15 ± 0.343 | 6.62 ± 0.397
27 | SAGGSAGGSMTIKITLPEEGEKVKITIFVNGEEKEIEIEPGEEITIELPENVKNAIIIIEKEPSAGGSAGGS [r12_729_TrROS_Hall] | 10.6 ± 0.46 | 10.4 ± 0.243 | 10.4 ± 0.418
28 | SAGGMTLLKVRIYIPSEPKPIEVELFTDGDPEKAEEAVRELVEELGYPDAKVEVELLEVDPSDPRFLGSAGG [r13_682_TrMRF] | 14.9 ± 0.213 | 16.67 ± 0.1 | 9.96 ± 0.172
29 | SAGKKKKIKVKIEIRVKKKYKTKDGKEVEEKEETITVEIEMTLEELKEAIKKLPENVEITKITKIEKESAGG [r19_114_TrROS_Hall] | 9.47 ± 0.669 | 10.1 ± 0.243 | 6.62 ± 0.46
30 | SAEKLKKILENIEKVEFDEETGEVYITVKSVEEAEKALKELFPDVEIEKDEDGNYRFRIRVEKLPEELLSAG [r14_115_TrROS_Hall] | 18.4 ± 0.351 | 19.6 ± 0.343 | 15.3 ± 0.502
31 | SAGGMKFKIVKIEVKEDKVTIEIEAETEEELEEAKKLAEELAKKLGLSKEKIEVKIELRPPPEEEEEESAGG [r13_430_TrROS_Hall] | 10.7 ± 2.18 | 9.17 ± 0.628 | 10.2 ± 0.962
32 | SAGGIEVEAESERVEGGVLRVTVTAADPDGVPIVLELPVPPGAPEITEEEARELAVEAALKVAAELASAGGS [r8_123_TrMRF] | 2.92 ± 0.222 | 2.16 ± 0.142 | 3.71 ± 0.142
33 | SPRIEVRKLPDGTELVRIEIPTPEGNPVVVEATVTYDPETGTVTQEVTLTDPNVPPEVKALLESFTLTVPSA [r9_715_JUSTAS] | 5.85 ± 0.176 | 6.46 ± 0.117 | 4.67 ± 0.0795
34 | SAGGSRIEEVAREILEKLPLKPGEPVLVEVEVDFPDGLRIRLKVEAYVDPETGEVHLKVEILEIEPVSAGGS [r16_634_TrMRF] | 12.8 ± 0.289 | 12.2 ± 0.268 | 13.5 ± 0.163
35 | SAMTKLVEFDSEEEYEAAVKAAAAAGESVLARLKDPSGTYTVVEVEVDPETGTVTVKKTEKVPVDGSLGSAG [r14_455_JUSTAS] | 4.78 ± 0.176 | 5.73 ± 0.113 | 2.6 ± 0.0753
36 | SAGGSAGGMTVTIELPGSTYTVELPSSVKSVSELKVLEDGTLVLTFPSTGTTVTVPIPPPGSHHSAGGSAGG [r6_370_JUSTAS] | 4.21 ± 0.46 | 3.67 ± 0.544 | 4.3 ± 0.247
37 | IRGMPVEEIKEIARDFFRKHGMKVTTVEIVPTPNGMTQVDIEIEPPDKGRRYRIDIYVPEDGMVQIDIEPYS [r1_460_TrROS] | 10.1 ± 1 | 10.6 ± 0.544 | 9.32 ± 0.297
38 | SAGGSAGGSAGKKPEKYILIKVKKEDVEKLLEAIKKLLPPGAEIVKIEKTPEYVYIVVKLSAGGSAGGSAGG [r11_698_TrROS_Hall] | 17.6 ± 0.36 | 18.3 ± 0.293 | 14.2 ± 0.544
39 | SAGGSAGGSAKSFWIDSPEQAEELADELQQKGPNVEPTVERDDNNGWYQLEIPNGKDIVIWGSAGGSAGGSA [r18_154_TrROS] | 1.14 ± 1 | 3.05 ± 0.795 | -1.75 ± 0.837
40 | SAGGSPPPVEVTPITHINGGEPVPTRVETYPDGTVTVHITLPDGSSGTLPAEELAELLAAPGSLGDFSAGGS [r16_105_JUSTAS] | 3.37 ± 0.188 | -1.9 ± 0.138 | 6.42 ± 0.297
41 | SAGGSAGGAIGTIDYNGKPLRLSVYLPDNPRVFEYPVDGDPLVFAAELNRETGFDVTDVVVVGGSAGGSAGG [r6_762_TrMRF] | 0.552 ± 0.586 | 0.138 ± 0.753 | 1.22 ± 0.41
42 | SMKVKTYTFKIKVDGKEIEVTVEELEDGELLVTIKIKENGKEKTIVVSREELEELLKALLPPGAEIEKVESA [r9_384_TrROS_Hall] | 13.9 ± 0.414 | 14.6 ± 0.23 | 12.5 ± 0.544
